According to PMC3958441, “Isl1 and Pou4f2 Form a Complex to Regulate Target Genes in Developing Retinal Ganglion Cells” (PLoS ONE, 2014):

Tests used:
Assay in all cases: EMSA; EMSA: 20 mM Tris-HCl pH 7.5, 50 mM NaCl, 10 mM DTT, 1 mM EDTA, 5% glycerol, 200 ng dI/dC, 200 ng each protein in 20 ul, 4 C, 30 min; 8% PAGE, 1x TBE, 4 C
Pou4f2D2 = molecular target: T1, Pou4f2D2 (mouse, UniProt Q63934 1-330); conditions: protein: recombinant; tags: His (C-terminal); (radiolabel, Klenow fill-in); 5' overhang 1 nt at both ends before fill-in
T1 sequence: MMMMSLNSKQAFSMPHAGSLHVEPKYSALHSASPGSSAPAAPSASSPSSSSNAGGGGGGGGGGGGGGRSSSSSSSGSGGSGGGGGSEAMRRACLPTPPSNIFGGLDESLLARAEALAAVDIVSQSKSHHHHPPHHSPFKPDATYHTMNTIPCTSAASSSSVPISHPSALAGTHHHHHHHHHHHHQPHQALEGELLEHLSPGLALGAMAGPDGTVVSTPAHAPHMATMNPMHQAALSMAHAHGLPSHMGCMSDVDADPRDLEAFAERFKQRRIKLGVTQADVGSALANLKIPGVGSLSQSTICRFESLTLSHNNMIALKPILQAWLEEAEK

Pou4f2D1 = molecular target: T2, Pou4f2D1 (mouse, UniProt Q63934 1-260); conditions: protein: recombinant; tags: His (C-terminal); (radiolabel, Klenow fill-in); 5' overhang 1 nt at both ends before fill-in
T2 sequence: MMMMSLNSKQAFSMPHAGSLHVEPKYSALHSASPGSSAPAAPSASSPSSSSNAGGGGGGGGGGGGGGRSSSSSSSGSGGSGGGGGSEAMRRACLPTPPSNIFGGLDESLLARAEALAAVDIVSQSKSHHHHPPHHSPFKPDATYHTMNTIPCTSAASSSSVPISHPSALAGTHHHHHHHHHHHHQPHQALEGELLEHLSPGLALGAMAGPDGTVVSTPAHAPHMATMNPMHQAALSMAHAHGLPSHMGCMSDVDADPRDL

Pou4f2D4 = molecular target: T3, Pou4f2D4 (mouse, UniProt Q63934 169-411); conditions: protein: recombinant; tags: His (C-terminal); (radiolabel, Klenow fill-in); 5' overhang 1 nt at both ends before fill-in
T3 sequence: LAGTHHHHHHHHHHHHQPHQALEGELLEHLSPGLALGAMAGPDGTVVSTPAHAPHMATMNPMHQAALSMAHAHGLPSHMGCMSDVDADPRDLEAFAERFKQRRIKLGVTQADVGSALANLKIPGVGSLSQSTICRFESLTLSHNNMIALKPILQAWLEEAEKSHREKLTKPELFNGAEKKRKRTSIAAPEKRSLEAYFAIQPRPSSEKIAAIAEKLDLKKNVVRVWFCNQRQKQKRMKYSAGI

Isl1D1 = molecular target: T4, Isl1D1 (mouse, UniProt P61372 1-181); conditions: protein: recombinant; tags: His (C-terminal); (radiolabel, Klenow fill-in); 5' overhang 1 nt at both ends before fill-in
T4 sequence: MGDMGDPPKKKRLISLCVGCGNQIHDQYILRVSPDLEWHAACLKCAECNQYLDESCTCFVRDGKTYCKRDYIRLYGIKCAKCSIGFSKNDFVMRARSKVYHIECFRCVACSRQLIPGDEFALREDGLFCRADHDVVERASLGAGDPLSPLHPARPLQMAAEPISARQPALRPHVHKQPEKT

Pou4f2 (Brn3b) = molecular target: T5, Pou4f2 (Brn3b) (mouse, UniProt Q63934 1-411); conditions: protein: recombinant; tags: His (C-terminal, pET-28a); (radiolabel, Klenow fill-in); 5' overhang 1 nt at both ends before fill-in
T5 sequence: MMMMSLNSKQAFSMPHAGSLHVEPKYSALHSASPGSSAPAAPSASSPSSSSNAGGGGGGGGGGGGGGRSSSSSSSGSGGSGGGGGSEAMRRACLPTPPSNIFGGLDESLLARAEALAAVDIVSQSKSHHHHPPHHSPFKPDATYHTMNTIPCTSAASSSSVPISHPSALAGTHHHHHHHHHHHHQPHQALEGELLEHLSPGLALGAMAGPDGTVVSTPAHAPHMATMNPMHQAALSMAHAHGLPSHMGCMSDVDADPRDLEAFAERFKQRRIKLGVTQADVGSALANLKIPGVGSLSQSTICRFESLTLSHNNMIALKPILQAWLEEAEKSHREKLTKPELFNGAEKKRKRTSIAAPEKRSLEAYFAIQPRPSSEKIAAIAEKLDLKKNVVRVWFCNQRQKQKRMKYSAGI

Isl1D5 = molecular target: T6, Isl1D5 (mouse, UniProt P61372 74-349); conditions: protein: recombinant; tags: His (C-terminal); (radiolabel, Klenow fill-in); 5' overhang 1 nt at both ends before fill-in
T6 sequence: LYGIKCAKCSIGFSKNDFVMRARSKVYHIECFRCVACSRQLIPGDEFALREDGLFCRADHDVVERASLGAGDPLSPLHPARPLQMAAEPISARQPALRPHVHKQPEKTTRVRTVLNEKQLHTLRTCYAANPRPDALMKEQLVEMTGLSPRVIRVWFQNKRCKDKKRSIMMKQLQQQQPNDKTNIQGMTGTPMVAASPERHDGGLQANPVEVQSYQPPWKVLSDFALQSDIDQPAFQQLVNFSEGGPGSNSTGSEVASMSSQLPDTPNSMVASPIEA

B1: SBRN3(W) (dsDNA)
DNA 1: GCACACGACCCAATGAATTAATAACCGGGCTG
DNA 2: GCAGCCCGGTTATTAATTCATTGGGTCGTGTG
Pou4f2D2
  binding result: no binding
Pou4f2D1
  binding result: no binding
Pou4f2D4
  binding result: binds
Isl1D1
  binding result: no binding
Pou4f2 (Brn3b)
  binding result: binds
Isl1D5
  binding result: binds

B2: CBRN3(W) (dsDNA)
DNA 1: GATCTCTCCTGCATAATTAATTACCCCCGGAT
DNA 2: GATCCGGGGGTAATTAATTATGCAGGAGAGAT
Pou4f2D2
  binding result: no binding
Pou4f2D1
  binding result: no binding
Pou4f2D4
  binding result: binds
Isl1D1
  binding result: no binding
Pou4f2 (Brn3b)
  binding result: binds
Isl1D5
  binding result: binds
